Experimental data reported in patent US10830762.
pKd: −log10 of the molar value.

Target: human CRBN (amino acids 40-442) in complex with full length human DDB1 (human) (UniProt Q96SW2)
Assay: SPR (Biacore T200): GST-GSPT1 domains 2 and 3 captured by anti-GST antibody, CRBN-DDB1 as analyte, 10 uM Compound C; data not shown

human CRBN (amino acids 40-442) in complex with full length human DDB1 (human), sequence (Q96SW2 40-442, chain 1 of 2): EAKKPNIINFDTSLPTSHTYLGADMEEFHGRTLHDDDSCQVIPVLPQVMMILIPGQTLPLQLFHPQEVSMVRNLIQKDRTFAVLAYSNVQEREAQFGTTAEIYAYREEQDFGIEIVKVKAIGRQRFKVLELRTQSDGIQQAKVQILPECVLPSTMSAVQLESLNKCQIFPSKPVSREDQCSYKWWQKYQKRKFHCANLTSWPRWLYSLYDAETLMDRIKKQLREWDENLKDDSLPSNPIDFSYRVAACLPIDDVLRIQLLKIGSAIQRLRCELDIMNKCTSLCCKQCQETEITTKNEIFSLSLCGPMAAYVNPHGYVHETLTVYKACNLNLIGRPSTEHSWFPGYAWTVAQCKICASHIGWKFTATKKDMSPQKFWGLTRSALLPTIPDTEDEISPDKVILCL
human CRBN (amino acids 40-442) in complex with full length human DDB1 (human), sequence (Q16531 2-1140, chain 2 of 2, further chain): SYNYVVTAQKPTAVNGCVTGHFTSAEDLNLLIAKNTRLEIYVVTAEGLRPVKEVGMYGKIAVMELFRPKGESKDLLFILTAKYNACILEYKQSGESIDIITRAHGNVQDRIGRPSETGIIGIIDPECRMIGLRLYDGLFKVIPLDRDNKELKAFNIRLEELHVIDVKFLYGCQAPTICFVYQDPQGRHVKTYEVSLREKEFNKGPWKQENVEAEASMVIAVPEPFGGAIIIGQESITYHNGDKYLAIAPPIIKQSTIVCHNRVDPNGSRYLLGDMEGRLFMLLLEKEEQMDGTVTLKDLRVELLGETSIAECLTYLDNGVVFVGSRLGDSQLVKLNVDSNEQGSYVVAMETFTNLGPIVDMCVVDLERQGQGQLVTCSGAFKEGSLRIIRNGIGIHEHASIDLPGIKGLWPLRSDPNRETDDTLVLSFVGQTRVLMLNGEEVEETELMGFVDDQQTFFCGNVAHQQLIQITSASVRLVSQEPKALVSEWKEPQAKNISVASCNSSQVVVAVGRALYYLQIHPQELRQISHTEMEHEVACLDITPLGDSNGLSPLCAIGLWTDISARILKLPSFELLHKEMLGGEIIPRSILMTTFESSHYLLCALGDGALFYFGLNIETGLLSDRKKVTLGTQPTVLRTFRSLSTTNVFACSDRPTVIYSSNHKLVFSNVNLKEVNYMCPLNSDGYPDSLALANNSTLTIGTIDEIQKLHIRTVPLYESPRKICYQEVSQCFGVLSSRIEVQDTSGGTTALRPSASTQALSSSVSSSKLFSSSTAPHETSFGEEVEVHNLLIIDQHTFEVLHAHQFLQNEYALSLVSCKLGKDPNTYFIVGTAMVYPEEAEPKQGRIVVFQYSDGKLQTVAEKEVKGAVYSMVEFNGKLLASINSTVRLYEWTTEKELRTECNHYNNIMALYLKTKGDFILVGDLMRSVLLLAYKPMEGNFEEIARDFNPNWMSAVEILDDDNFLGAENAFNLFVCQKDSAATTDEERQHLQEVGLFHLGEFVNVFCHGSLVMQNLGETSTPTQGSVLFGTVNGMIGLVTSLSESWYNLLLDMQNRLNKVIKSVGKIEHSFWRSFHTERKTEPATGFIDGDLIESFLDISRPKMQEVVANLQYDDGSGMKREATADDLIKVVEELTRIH

## GST-GSPT1-domain 2 and 3 (from UniProt P15170 437-633)
  pKd: 6.40
